Target: T1, caspase-3 substrate CGKRKGDEVDSG
T1 chain: CGKRKGDEVDSG

B1: caspase-3 (protein)
chain: SGISLDNSYKMDYPEMGLCIIINNKNFHKSTGMTSRSGTDVDAANLRETFRNLKYEVRNKNDLTREEIVELMRDVSKEDHSKRSSFVCVLLSHGEEGIIFGTNGPVDLKKITNFFRGDRCRSLTGKPKLFIIQACRGTELDCGIETDSGVDDDMACHKIPVEADFLYAYSTAPGYYSWRNSKDGSWFIQSLCAMLKQYADKLEFMHILTRVNRKVATEFESFSFDATFHAKKQIPCIVSMLTKELYFYH
cleavage of the immobilised substrate, read by SAMDI mass spectrometry: we also observed a peak corresponding to the caspase-3 product at 144 Da lower than the initial substrate mass

From patent publication US20210325403
